[ ]: non-standard residue; d: D form. d(hArg) = N=C(N)NCCCC[C@@H](N)C(=O)O; dPhg = N[C@@H](C(=O)O)c1ccccc1
Columns and labels:
[1] = molecular target: T1, Abeta monomers (Homo sapiens, UniProt P05067); assay: Peptide microarray, binding of FITC Abeta monomers to immobilized peptides; details: for Binding signal to Abeta monomers: peptide microarray, FITC Abeta, 1 hour at room temperature, control subtracted, averaged; for Binding specificity monomer to fibrils: quotient binding signal to monomers / binding signal to fibrils; for Binding specificity monomer to oligomer: quotient binding signal to monomers / binding signal to oligomers
T1 construct: incubate with FITC Abeta monomers, oligomers, fibrils and FITC for 1 hour at room temperature
T1 sequence (P05067 672-713 limits assumed): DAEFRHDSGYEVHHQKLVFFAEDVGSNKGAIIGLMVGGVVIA
Description: (§1) The procedure for identifying peptides that bind specifically to amyloid beta monomer or specifically to amyloid beta oligomers and for determining the binding specificity of peptides within the meaning of the present invention can thus be as follows. Peptide microarrays comprising various peptides immobilized on a surface, such as derivatives of D3, are each incubated with different species of Abeta (such as monomers, oligomers and fibrils) labeled with a fluorescent dye. A peptide microarray is incubated with only the fluorescent dye to serve as the control. So as to ensure the reproducibility of the results, the incubation of the peptide microarrays can be carried out at least three times for each species. The binding of the fluorescence-labeled Abeta to the immobilized peptides is detected by way of the fluorescent dye. The more Abeta binds to the peptide, the higher the fluorescence signal is. The measured fluorescence signals of the reproductions are standardized, and the […]. This avoids binding of the fluorescence-labeled Abeta via the dye. The binding signals of an Abeta species to a peptide are then averaged. So as to determine the binding specificity, the quotient of the species to which the peptide is to specifically bind and another species is found.
(§2) Pretreatment of the peptide microarray slides: • briefly dip 3× in ethanol (96%) and then wash with H2O (30 minutes) • briefly dry by way of centrifuging
(§3) Preparation of monomers and oligomers: • size exclusion chromatography according to Johansson et al. 2006 (Johansson, A.-S. et al. Physiochemical characterization of the Alzheimer's disease-related peptides Aβ1-42Arctic and Aβ1-42 wt. FEBS Journal 273, 2618-2630 (2006)). • oligomers were fractionated at 8-9 ml, monomers at 16-17 ml.
(§4) Carrying out the peptide microarray: • incubate with FITC Abeta monomers, oligomers, fibrils and FITC for 1 hour at room temperature • wash: TBS-T briefly 3× (only TBS-T buffer is replaced), 3×10 minutes in a flacon, 3×H2O, 3×10 minutes • dry by way of centrifugation • The binding of the fluorescence-labeled Abeta to the immobilized peptides is detected by way of the fluorescent dye using the microarray reader FLA800 from Fuji Film. The more Abeta binds to the peptide, the higher is the fluorescence signal. • carrier set mode: slides • resolution: 10 μm • scan mode: high sensitivity (slow): scan pixel at 200 mm/s • laser: 473 nm • filter: 530 DF 20 • photomultiplier tube (PMT) HV (%): 100 • images were stored as .tif files
(§5) The software, AIDA Metrix, from Raytest was used to evaluate the fluorescence signals:
(§6) To ensure the reproducibility of the results, the incubation of the peptide microarrays is carried out at least three times for each species.
(§7) The measured fluorescence signals of the reproductions are standardized using a median-based standardization, and the control was subtracted from the signal. This avoided the binding of the fluorescence-labeled Abeta via the dye.
(§8) The binding signals of an Abeta species to a peptide were averaged.
So as to determine the binding specificity, the quotient of the species to which the peptide is to specifically bind and another species is created.
Example: binding specificity of peptide X to Abeta monomers=binding signal of peptides X to monomers/binding signal of peptides X to oligomers.

[2] = molecular target: T2, Abeta oligomers (Homo sapiens, UniProt P05067); assay: Peptide microarray, binding of FITC Abeta oligomers to immobilized peptides; details: 1 hour at room temperature, control subtracted, averaged
T2 sequence (P05067 672-713 limits assumed): as above
Description: as §1, §2, §3, §4, §5, §6, §7, §8

[3] = molecular target: T3, Abeta fibrils (Homo sapiens, UniProt P05067); assay: Peptide microarray, binding of FITC Abeta fibrils to immobilized peptides; details: 1 hour at room temperature, control subtracted, averaged
T3 construct: Pre-incubated Abeta was co-incubated with the peptides
T3 sequence (P05067 672-713 limits assumed): as above
Description: as §1, §2
Preparation of fibrils: • incubate Abeta over 3 days, centrifuge, discard supernatant and resuspend in buffer (repeat 3 times)
as §4, §5, §6, §7, §8

[4] = molecular target: T2, Abeta oligomers; assay: QIAD method, elimination of Abeta oligomers (density gradient centrifugation, RP-HPLC); type: biochemical; details: ratio of Abeta to peptide of 8:1, fractions 4-6, FIG. 2
Description: Using the QIAD method for the quantitative characterization of amyloid peptides and/or proteins in a sample, it was possible to quantify the properties of the substances. Pre-incubated Abeta was co-incubated with the peptides. The different Abeta species were separated by way of density gradient centrifugation and quantified in the individual fractions by way of RP-HPLC Abeta. The elimination of the Abeta oligomers in fractions 4-6 was analyzed.

[5] = molecular target: T3, Abeta fibrils; assay: ThT assay, formation of ThT positive Abeta fibrils; type: biochemical; details: 48 hours, co-incubation with Abeta, FIG. 3

Substance	Binding signal to Abeta monomers [1] [rfu]	Binding specificity monomer to fibrils [1]	Binding specificity monomer to oligomer [1]	Binding signal to Abeta oligomers [2] [rfu]	Binding signal to Abeta fibrils [3] [rfu]	Elimination of Abeta oligomers [4] [%]	ThT fluorescence during the entire measuring time period [5]
rkr07rlvtkrnr (H-[dR][dK][dR][d(hArg)][dR][dL][dV][dT][dK][dR][dN][dR]-NH2; SMILES CC(C)C[C@@H](NC(=O)[C@@H](CCCNC(=N)N)NC(=O)[C@@H](CCCCNC(=N)N)NC(=O)[C@@H](CCCNC(=N)N)NC(=O)[C@@H](CCCCN)NC(=O)[C@H](N)CCCNC(=N)N)C(=O)N[C@@H](C(=O)N[C@@H](C(=O)N[C@H](CCCCN)C(=O)N[C@H](CCCNC(=N)N)C(=O)N[C@H](CC(N)=O)C(=O)N[C@H](CCCNC(=N)N)C(N)=O)[C@H](C)O)C(C)C) [ANK16, D3 derivative; 07: D-Homoarginine]	11.9	8.1	8.6	1.4	1.5	–	–
rkrirl06yhikr (H-[dR][dK][dR][dI][dR][dL][dPhg][dY][dH][dI][dK][dR]-NH2; SMILES CC[C@@H](C)[C@@H](NC(=O)[C@@H](Cc1c[nH]cn1)NC(=O)[C@@H](Cc1ccc(O)cc1)NC(=O)[C@H](NC(=O)[C@@H](CC(C)C)NC(=O)[C@@H](CCCNC(=N)N)NC(=O)[C@H](NC(=O)[C@@H](CCCNC(=N)N)NC(=O)[C@@H](CCCCN)NC(=O)[C@H](N)CCCNC(=N)N)[C@H](C)CC)c1ccccc1)C(=O)N[C@H](CCCCN)C(=O)N[C@H](CCCNC(=N)N)C(N)=O) [ANK17, D3 derivative; 06: Phenylglycine (D)]	4.7	2.5	4.8	1.0	1.9	–	–
rkrirl06yhinr (H-[dR][dK][dR][dI][dR][dL][dPhg][dY][dH][dI][dN][dR]-NH2; SMILES CC[C@@H](C)[C@@H](NC(=O)[C@@H](Cc1c[nH]cn1)NC(=O)[C@@H](Cc1ccc(O)cc1)NC(=O)[C@H](NC(=O)[C@@H](CC(C)C)NC(=O)[C@@H](CCCNC(=N)N)NC(=O)[C@H](NC(=O)[C@@H](CCCNC(=N)N)NC(=O)[C@@H](CCCCN)NC(=O)[C@H](N)CCCNC(=N)N)[C@H](C)CC)c1ccccc1)C(=O)N[C@H](CC(N)=O)C(=O)N[C@H](CCCNC(=N)N)C(N)=O) [ANK2, D3 derivative; 06: Phenylglycine (D)]	5.6	7.1	3.4	1.6	0.8	54±7	remains at the level of the first measured value
rkrirl06yhwnr (H-[dR][dK][dR][dI][dR][dL][dPhg][dY][dH][dW][dN][dR]-NH2; SMILES CC[C@@H](C)[C@@H](NC(=O)[C@@H](CCCNC(=N)N)NC(=O)[C@@H](CCCCN)NC(=O)[C@H](N)CCCNC(=N)N)C(=O)N[C@H](CCCNC(=N)N)C(=O)N[C@H](CC(C)C)C(=O)N[C@@H](C(=O)N[C@H](Cc1ccc(O)cc1)C(=O)N[C@H](Cc1c[nH]cn1)C(=O)N[C@H](Cc1c[nH]c2ccccc12)C(=O)N[C@H](CC(N)=O)C(=O)N[C@H](CCCNC(=N)N)C(N)=O)c1ccccc1) [ANK3, D3 derivative; 06: Phenylglycine (D)]	3.6	21.9	6.5	0.6	0.2	62±10	remains at the level of the first measured value
rkrirlvyhinr (H-[dR][dK][dR][dI][dR][dL][dV][dY][dH][dI][dN][dR]-NH2; SMILES CC[C@@H](C)[C@@H](NC(=O)[C@@H](Cc1c[nH]cn1)NC(=O)[C@@H](Cc1ccc(O)cc1)NC(=O)[C@H](NC(=O)[C@@H](CC(C)C)NC(=O)[C@@H](CCCNC(=N)N)NC(=O)[C@H](NC(=O)[C@@H](CCCNC(=N)N)NC(=O)[C@@H](CCCCN)NC(=O)[C@H](N)CCCNC(=N)N)[C@H](C)CC)C(C)C)C(=O)N[C@H](CC(N)=O)C(=O)N[C@H](CCCNC(=N)N)C(N)=O) [ANK1, D-enantiomeric 12-mer peptide derived from D3]	6.6	5.1	3.5	1.9	1.3	51±6	remains at the level of the first measured value
rpr07rlhtkkkr (H-[dR][dP][dR][d(hArg)][dR][dL][dH][dT][dK][dK][dK][dR]-NH2; SMILES CC(C)C[C@@H](NC(=O)[C@@H](CCCNC(=N)N)NC(=O)[C@@H](CCCCNC(=N)N)NC(=O)[C@@H](CCCNC(=N)N)NC(=O)[C@H]1CCCN1C(=O)[C@H](N)CCCNC(=N)N)C(=O)N[C@H](Cc1c[nH]cn1)C(=O)N[C@@H](C(=O)N[C@H](CCCCN)C(=O)N[C@H](CCCCN)C(=O)N[C@H](CCCCN)C(=O)N[C@H](CCCNC(=N)N)C(N)=O)[C@H](C)O) [ANK18, D3 derivative; 07: D-Homoarginine]	1.2	9.4	7.0	0.2	0.1	–	–
rprvrl06yhwnr (H-[dR][dP][dR][dV][dR][dL][dPhg][dY][dH][dW][dN][dR]-NH2; SMILES CC(C)C[C@@H](NC(=O)[C@@H](CCCNC(=N)N)NC(=O)[C@H](NC(=O)[C@@H](CCCNC(=N)N)NC(=O)[C@H]1CCCN1C(=O)[C@H](N)CCCNC(=N)N)C(C)C)C(=O)N[C@@H](C(=O)N[C@H](Cc1ccc(O)cc1)C(=O)N[C@H](Cc1c[nH]cn1)C(=O)N[C@H](Cc1c[nH]c2ccccc12)C(=O)N[C@H](CC(N)=O)C(=O)N[C@H](CCCNC(=N)N)C(N)=O)c1ccccc1) [ANK15, D3 derivative; 06: Phenylglycine (D)]	1.3	12.2	2.2	0.6	0.1	–	–

Reference: patent US10174097B2, “Specific A-beta species-binding peptides for the therapy and/or diagnosis of Alzheimer's dementia” (Forschungszentrum Juelich GmbH, priority 2015, dated 2019)
